Source: patent publication CN116507641A

How the values were obtained:
[1] = target: 人重组结合素-4蛋白 (recombinant human Nectin-4, extracellular domain) (human) (UniProt Q96NY8); assay: ELISA, recombinant human Nectin-4 coated on plate
[2] = target: 人结合素-4 (full-length human Nectin-4 on cells) (human) (UniProt Q96NY8); assay: FACS competition: antibody titrated against biotinylated human Nectin-1-His (competitor, 0.75 ug/ml) on CHO-Nectin-4 cells
Chain of 人结合素-4 (full-length human Nectin-4 on cells) (human) (Q96NY8 32-510): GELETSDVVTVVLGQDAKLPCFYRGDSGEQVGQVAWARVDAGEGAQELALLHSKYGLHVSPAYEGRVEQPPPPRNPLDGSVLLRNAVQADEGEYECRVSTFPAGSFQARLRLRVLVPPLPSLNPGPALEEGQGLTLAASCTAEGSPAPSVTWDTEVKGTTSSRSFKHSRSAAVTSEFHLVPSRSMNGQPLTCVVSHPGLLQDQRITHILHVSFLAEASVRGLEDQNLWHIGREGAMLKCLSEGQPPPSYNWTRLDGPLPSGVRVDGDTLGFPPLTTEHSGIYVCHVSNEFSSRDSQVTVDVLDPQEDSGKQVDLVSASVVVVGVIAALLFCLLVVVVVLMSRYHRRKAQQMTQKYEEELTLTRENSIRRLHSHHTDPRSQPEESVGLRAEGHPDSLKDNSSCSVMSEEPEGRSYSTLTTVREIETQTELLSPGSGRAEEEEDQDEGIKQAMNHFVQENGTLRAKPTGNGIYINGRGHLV

Chain of 人重组结合素-4蛋白 (recombinant human Nectin-4, extracellular domain) (human) (Q96NY8 32-349): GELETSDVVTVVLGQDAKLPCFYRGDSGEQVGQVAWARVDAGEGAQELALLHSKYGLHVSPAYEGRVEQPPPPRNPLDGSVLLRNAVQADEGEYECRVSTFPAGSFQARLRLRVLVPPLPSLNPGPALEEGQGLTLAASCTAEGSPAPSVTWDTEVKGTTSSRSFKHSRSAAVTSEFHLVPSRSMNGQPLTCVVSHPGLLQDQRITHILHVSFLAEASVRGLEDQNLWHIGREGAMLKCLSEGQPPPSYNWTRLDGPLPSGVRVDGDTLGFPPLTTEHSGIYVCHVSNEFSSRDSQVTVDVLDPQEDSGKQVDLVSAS

Substance: 阳性对照1 (PC1), in-house Nectin-4-specific antibody based on enfortumab antibody (AGS-22M6)
- EC50 [1]: 0.34 nM
- EC50 [2]: 0.16 nM
